Assay results reported in patent publication US20260008847A1 (ELPISCIENCE SUZHOU BIOPHARMA, published 2026).
Where two headings read alike, the source gives them in different places.

Experiments:
[1] = molecular target: T1, 6×His-tagged human LILRB2 ECD recombinant protein (human, UniProt Q8N423 22-458, limits assumed); assay: Octet tandem binning on captured 6×His LILRB2 ECD; competitor (Ab1) 1E1
T1 construct: Bought protein; not shown: 6×His-tag

[2] = molecular target: T2, Human LILRB2 stably expressed on EL4 cells (EL4/LILRB2) (human, UniProt Q8N423 22-597); assay: Competitive FACS: EL4/LILRB2 cells preincubated with 10 ug/mL antibody, then ANGPTL7 added; inhibition of the ligand's binding to the cells [panel ANGPTL7]
T2 construct: also called EL4-LILRB2 cells; cell membrane human LILRB2
T2 sequence (Q8N423 22-597 limits assumed): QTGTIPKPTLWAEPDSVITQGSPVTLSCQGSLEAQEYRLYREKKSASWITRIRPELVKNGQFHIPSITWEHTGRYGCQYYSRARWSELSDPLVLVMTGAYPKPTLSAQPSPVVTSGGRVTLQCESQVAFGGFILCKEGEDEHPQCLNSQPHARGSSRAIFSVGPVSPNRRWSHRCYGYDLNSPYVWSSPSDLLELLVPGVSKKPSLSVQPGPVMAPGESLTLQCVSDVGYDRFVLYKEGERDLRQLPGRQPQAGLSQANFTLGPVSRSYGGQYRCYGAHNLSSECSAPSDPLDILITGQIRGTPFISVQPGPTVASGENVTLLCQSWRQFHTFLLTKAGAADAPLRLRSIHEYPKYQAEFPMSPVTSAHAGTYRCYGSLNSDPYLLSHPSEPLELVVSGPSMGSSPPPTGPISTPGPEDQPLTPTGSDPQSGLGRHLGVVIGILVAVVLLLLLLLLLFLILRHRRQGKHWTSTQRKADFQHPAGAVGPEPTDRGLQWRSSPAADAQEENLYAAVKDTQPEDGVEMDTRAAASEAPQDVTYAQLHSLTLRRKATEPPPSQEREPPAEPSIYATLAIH
Description: (§1) The blocking activities were determined by quantitating the blockade of the ligands binding to EL4/LILRB2 cells.

[3] = molecular target: T1, 6×His-tagged human LILRB2 ECD …; assay: Bio-Layer Interferometry (Octet), 1:1 model, human LILRB2 ECD
[4] = molecular target: T3, Cell membrane human LILRB2 on human primary monocytes from healthy donors (human, UniProt Q8N423 22-597); assay: FACS on human primary monocytes, Donor #6004
T3 construct: whole, on cells; Endogenous receptor on donor cells; the donors' alleles are not known; Also used as the target in the functional assays on PBMCs, monocytes, macrophages and dendritic cells; also called membrane LILRB2; LILRB2 on human primary monocytes, PBMCs, monocyte derived macrophages and dendritic cells
T3 sequence (Q8N423 22-597): as the sequence (Q8N423 22-597 limits assumed) above

[5] = molecular target: T4, Human LILRB1 ECD recombinant protein with 6×His-tag (human, UniProt Q8NHL6 24-458, limits assumed); assay: ELISA: plate coated with LILRB1 ECD recombinant protein, antibody at 0.5 ug/mL (method of example 3.2.1); mean OD450 printed over the bar [continued) F]
T4 construct: Bought protein; not shown: 6×His-tag
T4 sequence (Q8NHL6 24-458 limits assumed): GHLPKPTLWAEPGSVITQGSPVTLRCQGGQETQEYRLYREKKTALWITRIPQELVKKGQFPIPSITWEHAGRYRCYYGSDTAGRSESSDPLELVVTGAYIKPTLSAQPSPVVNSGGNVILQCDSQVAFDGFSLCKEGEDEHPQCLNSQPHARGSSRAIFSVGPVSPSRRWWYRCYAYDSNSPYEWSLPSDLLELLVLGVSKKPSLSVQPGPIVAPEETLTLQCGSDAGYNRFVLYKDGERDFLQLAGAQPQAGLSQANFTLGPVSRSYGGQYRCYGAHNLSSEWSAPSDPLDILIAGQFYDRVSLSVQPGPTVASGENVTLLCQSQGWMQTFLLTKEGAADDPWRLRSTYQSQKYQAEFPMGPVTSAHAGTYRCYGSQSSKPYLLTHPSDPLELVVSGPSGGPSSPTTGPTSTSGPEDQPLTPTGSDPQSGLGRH

[6] = molecular target: T2, Human LILRB2 stably expressed on EL4 …; assay: competitive FACS on EL4/LILRB2 cells, blockade of HLA-G binding
Description: as §1

[7] = molecular target: T2, Human LILRB2 stably expressed on EL4 …; assay: Competitive FACS: EL4/LILRB2 cells preincubated with 10 ug/mL antibody, then HLA-A2 complex added; inhibition of the ligand's binding to the cells [panel HLA-A2]
Description: as §1

[8] = molecular target: T3, Cell membrane human LILRB2 on human …; assay: FACS on human primary monocytes, Donor #1045
[9] = molecular target: T5, Human LILRA2 ECD recombinant protein with His-tag (human, UniProt Q8N149 24-449); assay: ELISA: plate coated with LILRA2 ECD recombinant protein [continued) B]
T5 construct: range 24-449; Bought protein; not shown: His-tag
T5 sequence (Q8N149 24-449 limits assumed): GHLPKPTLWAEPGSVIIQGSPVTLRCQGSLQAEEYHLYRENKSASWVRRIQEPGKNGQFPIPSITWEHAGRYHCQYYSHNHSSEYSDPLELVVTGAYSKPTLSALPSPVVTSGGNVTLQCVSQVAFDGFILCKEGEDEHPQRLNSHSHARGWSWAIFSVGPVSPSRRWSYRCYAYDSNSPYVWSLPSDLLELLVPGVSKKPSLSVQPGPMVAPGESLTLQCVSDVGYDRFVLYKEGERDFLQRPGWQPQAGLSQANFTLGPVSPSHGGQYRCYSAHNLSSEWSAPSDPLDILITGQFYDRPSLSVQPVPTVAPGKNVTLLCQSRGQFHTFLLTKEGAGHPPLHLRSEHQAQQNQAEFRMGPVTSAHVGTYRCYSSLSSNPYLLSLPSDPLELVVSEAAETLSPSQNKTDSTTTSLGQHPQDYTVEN

[10] = molecular target: T2, Human LILRB2 stably expressed on EL4 …; assay: Competitive FACS: EL4/LILRB2 cells preincubated with 10 ug/mL antibody, then ANGPTL4 added; inhibition of the ligand's binding to the cells [panel ANGPTL4]
Description: as §1

[11] = molecular target: T2, Human LILRB2 stably expressed on EL4 …; assay: competitive FACS, blockade of HLA-G binding to LILRB2 on cells
Description: as §1

[12] = molecular target: T1, 6×His-tagged human LILRB2 ECD …; assay: Octet, 1:1 model; column printed as 'kd (1/s)', heads of c4 and c5 are swapped
[13] = molecular target: T3, Cell membrane human LILRB2 on human …; assay: cell-based or functional assay
[14] = molecular target: T2, Human LILRB2 stably expressed on EL4 …; assay: FACS on EL4/LILRB2 cells
[15] = molecular target: T2, Human LILRB2 stably expressed on EL4 …; assay: FACS on EL4/LILRB2 cells; remark: listed apart in the source
[16] = molecular target: T1, 6×His-tagged human LILRB2 ECD …; assay: Octet, 1:1 model; column printed as 'ka (1/Ms)', heads of c4 and c5 are swapped
[17] = molecular target: T1, 6×His-tagged human LILRB2 ECD …; assay: Octet, 1:1 model
[18] = molecular target: T2, Human LILRB2 stably expressed on EL4 …; assay: competitive FACS on EL4/LILRB2 cells, blockade of HLA-A2 binding
Description: as §1

T1 sequence (Q8N423 22-458 limits assumed): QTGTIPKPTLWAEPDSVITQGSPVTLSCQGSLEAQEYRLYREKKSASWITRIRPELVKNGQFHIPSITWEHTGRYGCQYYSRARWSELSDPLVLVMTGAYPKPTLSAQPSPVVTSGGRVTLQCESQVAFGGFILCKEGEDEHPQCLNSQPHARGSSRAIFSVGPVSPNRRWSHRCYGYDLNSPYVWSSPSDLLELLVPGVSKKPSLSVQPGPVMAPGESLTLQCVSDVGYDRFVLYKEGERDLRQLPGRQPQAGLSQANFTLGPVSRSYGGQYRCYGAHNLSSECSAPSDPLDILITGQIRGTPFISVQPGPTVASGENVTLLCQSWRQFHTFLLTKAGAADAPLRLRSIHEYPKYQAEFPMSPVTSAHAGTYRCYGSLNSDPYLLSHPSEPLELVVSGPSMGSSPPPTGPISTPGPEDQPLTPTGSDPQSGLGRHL

B1: 1E1 (antibody, V domains shown)
VH: QVQLQQWGAGLLKPSETLSLTCAVYGGSFSGYYWSWIRQPPGKGLEWIGEINHSGSTNYNPSLKSRVTISVDTSKNQFSLKLSSVTAADTAVYYCARLPTRWVTTRYFDLWGRGTLVTVSS
VL: QSVLTQPPSVSGAPGQRVTISCTGSSSNIGAGYDVHWYQQLPGTAPKLLIYGNSNRPSGVPDRFSVSKSGASASLAITGLQAEDEADYYCQSFDNSLSAYVFGGGTQLTVL
notes: Human IgG4 monoclonal antibody with S228P in the constant region, made according to US 2018/0298096 A1; also called benchmark antibody 1E1
- relative binding signal of Ab2 in tandem [1]: 3%
- Inhibition (%) [2]: 96%
- Kd [3]: 8.07 nM
- koff [3]: 0.00204 s⁻¹
- kon [3]: 253000 M⁻¹ s⁻¹
- EC50 [4]: 0.91 nM
- OD450 [5]: 0.08
- IC50 [6]: 0.32 nM
- TOP Blocking (%) [6]: 100%
- Inhibition (%) [7]: 99%
- EC50 [8]: 0.84 nM
- binding result [9]: no binding (tested: 0.5 ug/mL)
- Inhibition (%) [10]: 54%

B2: J-19 (antibody, V domains shown)
VH: QVTLKESGPGILQPSHTLSLTCSFSGFSLNTYAMGVSWIRQPSGKGLEWLASIWWNGNKYNNPSLKSRLTVSKDTSNNQAFLKVTSVDTADTATYYCAHSRIIRFTDYVMDAWGQGASVTVSS
VL: DIQMTQSPASLSTFLGEPVTIECRASEDIYNDLAWYQQKPGKSPQLLIYNANSLHTGVPSRFSGSGSGTQYSLKINSLQSEDVASYFCQQYYDYPLTFGSGTKLEIK
notes: Human IgG4 monoclonal antibody with S228P in the constant region, made according to WO 2019/126514 A2; also called benchmark antibody J-19
- relative binding signal of Ab2 in tandem [1]: 32%
- Inhibition (%) [2]: 97%
- Kd [3]: 2.14 nM
- koff [3]: 0.00178 s⁻¹
- kon [3]: 830000 M⁻¹ s⁻¹
- OD450 [5]: 0.1
- IC50 [6]: 0.04 nM
- TOP Blocking (%) [6]: 100%
- Inhibition (%) [7]: 100%
- IC50 [11]: 0.07 nM
- TOP Blocking (%) [11]: 100%
- binding result [9]: no binding (tested: 0.5 ug/mL)
- Inhibition (%) [10]: 59%

B3: 043c (antibody, V domains shown)
VH: QVQLQQSGAELAKPGASVKLSCKASGYTFTSYWMYWVKQRPGQGLEWIGHINPSSGYTKYNQKFKDKATLTADKSSSTAYMQLSSLTYEDSAVYYCARDPNWDNYWGQGTTLTVSS
VL: DIVMTQSHKFMSTSVGDRVSITCKASQDVSIAVAWYQQKPGQSPKLLIYSASYRYTGVPDRFTGSGSGTDFTFTISSVQAEDLAVYYCQQHYSTPYTFGGGTKLEIK
notes: Human IgG4 chimeric antibody with S228P mutation at the Fc region; also called chimeric antibody 043c; parental antibody 043c
- kon [12]: 494000 M⁻¹ s⁻¹
- relative binding signal of Ab2 in tandem [1]: 108%
- Inhibition (%) [2]: 89%
- Relative cytokine/chemokine level, B7-H1/PD-L1 (M2-T coculture 1:1, Luminex) [13]: 1.8 fold of Medium
- Relative cytokine/chemokine level, CCL3/MIP-1 alpha (M2-T coculture 1:1, Luminex) [13]: 1.3 fold of Medium
- Relative cytokine/chemokine level, CCL4/MIP-1 beta (M2-T coculture 1:1, Luminex) [13]: 2.4 fold of Medium
- Relative cytokine/chemokine level, CCL5/RANTES (M2-T coculture 1:1, Luminex) [13]: 3.8 fold of Medium
- Relative cytokine/chemokine level, CCL19/MIP-3 beta (M2-T coculture 1:1, Luminex) [13]: 0.3 fold of Medium
- Relative cytokine/chemokine level, CCL20/MIP-3 alpha (M2-T coculture 1:1, Luminex) [13]: 2.2 fold of Medium
- Relative cytokine/chemokine level, CXCL2/GRO beta (M2-T coculture 1:1, Luminex) [13]: 0.4 fold of Medium
- Relative cytokine/chemokine level, FGF-basic (M2-T coculture 1:1, Luminex) [13]: 1.3 fold of Medium
- Relative cytokine/chemokine level, G-CSF (M2-T coculture 1:1, Luminex) [13]: 2.3 fold of Medium
- Relative cytokine/chemokine level, GM-CSF (M2-T coculture 1:1, Luminex) [13]: 1.6 fold of Medium
- Relative cytokine/chemokine level, Granzyme B (M2-T coculture 1:1, Luminex) [13]: 7.6 fold of Medium
- Relative cytokine/chemokine level, IFN-alpha (M2-T coculture 1:1, Luminex) [13]: 2.2 fold of Medium
- Relative cytokine/chemokine level, IFN-gamma (M2-T coculture 1:1, Luminex) [13]: 4.1 fold of Medium
- Relative cytokine/chemokine level, IL-1beta/IL-1F2 (M2-T coculture 1:1, Luminex) [13]: 1.9 fold of Medium
- Relative cytokine/chemokine level, IL-2 (M2-T coculture 1:1, Luminex) [13]: 17.8 fold of Medium
- Relative cytokine/chemokine level, IL-3 (M2-T coculture 1:1, Luminex) [13]: 3.6 fold of Medium
- Relative cytokine/chemokine level, IL-4 (M2-T coculture 1:1, Luminex) [13]: 1.6 fold of Medium
- Relative cytokine/chemokine level, IL-5 (M2-T coculture 1:1, Luminex) [13]: 2.3 fold of Medium
- Relative cytokine/chemokine level, IL-6 (M2-T coculture 1:1, Luminex) [13]: 0.2 fold of Medium
- Relative cytokine/chemokine level, IL-13 (M2-T coculture 1:1, Luminex) [13]: 1.8 fold of Medium
- Relative cytokine/chemokine level, IL-15 (M2-T coculture 1:1, Luminex) [13]: 1.8 fold of Medium
- Relative cytokine/chemokine level, PDGF-AA (M2-T coculture 1:1, Luminex) [13]: 4.3 fold of Medium
- Relative cytokine/chemokine level, PDGF-AB/BB (M2-T coculture 1:1, Luminex) [13]: 1.5 fold of Medium
- Relative cytokine/chemokine level, TGF-alpha (M2-T coculture 1:1, Luminex) [13]: 3.2 fold of Medium
- Relative cytokine/chemokine level, TNF-alpha (M2-T coculture 1:1, Luminex) [13]: 4.8 fold of Medium
- Relative cytokine/chemokine level, VEGF (M2-T coculture 1:1, Luminex) [13]: 0.3 fold of Medium
- Kd [3]: 0.74 nM
- koff [3]: 0.000557 s⁻¹
- kon [3]: 756000 M⁻¹ s⁻¹
- EC50 [4]: 0.29 nM
- EC50 [14]: 0.45 nM
- TOP MFI [14]: 45300 MFI
- OD450 [5]: 0.08
- IC50 [6]: 0.1 nM
- TOP Blocking (%) [6]: 100%
- Inhibition (%) [7]: 100%
- IC50 [11]: 0.11 nM
- TOP Blocking (%) [11]: 100%
- EC50 [8]: 0.32 nM
- EC50 [15]: 0.73 nM
- binding result [9]: no binding (tested: 0.5 ug/mL)
- Inhibition (%) [10]: 63%
- koff [16]: 0.00119 s⁻¹
- Kd [17]: 2.4 nM
- IC50 [18]: 0.48 nM
